Experimental findings from the RNAGym collection of RNA variant scans (doi:10.7554/elife.80360) are described below.

Sequences and labels used below:
B1: Hammerhead Ribozyme (parent)
chain: ACCGGAUGUGCUUUCCGGUCUGAUGAGUCCGUGAGGACGAAACAG

In the data set the parent is B1. Put plainly: self-cleavage, relative activity (ratio to wild type); higher = more cleavage; co-transcriptional.
Turning to C30U A34G, the self-cleavage worked out at 0.961.
For the variant G31U G45U, the self-cleavage is 0.933.
In the case of G31U G45C it was 0.819; in that of G31U G45A, 0.95; in that of C30U A41C, 0.374.
The result for C30U A41G reads 0.35; that for C30U A41U, 0.419; that for U32A G33A, 0.961.
Consider U32A G33C, for which the self-cleavage stood at 0.846.
As for U32A G33U, the self-cleavage is 0.859.
In the case of C30U G39C it was 0.319; in that of C30U G39U, 0.365.
Regarding C30U G39A, the self-cleavage came to 0.278.
The result for G31U C43G reads 0.472.
On to G31U C43A, for which the self-cleavage was determined as 0.376.
Turning to G31U C43U, the self-cleavage came out at 0.637.
The result for G33A A41U reads 0.428; that for G33A A41C, 0.465.
With G33A A41G, the self-cleavage turned out to be 0.384.
U32A A42G: the self-cleavage was 0.238.
The result for U32A A42C reads 0.315; that for U32A A42U, 0.373.
Take U32C A44U: the self-cleavage worked out at 0.359.
As for U32C A44G, the self-cleavage came to 1.32.
In the case of U32C A44C it was 0.678; in that of G31U A41U, 0.324; in that of G31U A41C, 0.388.
In the case of G31U A41G it was 0.364; in that of G31C U32G, 0.683.
As for G31C U32C, the self-cleavage came to 0.773.
The result for G31C U32A reads 0.908; that for U32A A40C, 0.622.
For U32A A40G, the self-cleavage is 0.312.
The result for U32A A40U reads 0.405.
Consider G31C A41C, for which the self-cleavage is 0.306.
The result for G31C A41U reads 0.381.
In the case of G31C A41G, the self-cleavage amounted to 0.374.
The result for U32G G36A reads 0.556; that for U32G G36C, 0.464; that for U32G G36U, 0.398.
The result for U32A C38U reads 0.915; that for U32A C38A, 0.681; that for U32A C38G, 0.733.
In the case of U32C G45U, the self-cleavage stood at 0.635.
With U32C G45A, the self-cleavage came to 0.776.
In the case of U32C G45C it was 0.425; in that of G31C A40C, 0.564; in that of G31C A40G, 0.302.
Turning to G31C A40U, the self-cleavage was found to be 0.367.
In the case of U32A G35C it was 0.796; in that of U32A G35A, 0.75.
With U32A G35U, the self-cleavage was determined as 0.985.
As for C30U A44G, the self-cleavage is 1.36.
The result for C30U A44C reads 0.632; that for C30U A44U, 0.625; that for G31U A34C, 0.84.
As for G31U A34U, the self-cleavage is 0.844.
For the variant G31U A34G, the self-cleavage came to 0.938.
For the variant C30U A37G, the self-cleavage stood at 1.21.
In the case of C30U A37C it was 1.08; in that of C30U A37U, 0.643; in that of U32A A44G, 1.41.
On to U32A A44U, for which the self-cleavage came to 0.633.
As for U32A A44C, the self-cleavage amounted to 0.581.
As for G31C A44G, the self-cleavage was determined as 1.53.
In the case of G31C A44U it was 0.655.
The result for G31C A44C reads 0.441.
In the case of G31A C38U, the self-cleavage amounted to 0.919.
In the case of G31A C38G it was 0.592; in that of G31A C38A, 0.766; in that of G31U G35A, 0.879.
The result for G31U G35C reads 0.654.
As to G31U G35U, the self-cleavage was found to be 1.03.
The result for G31C G33C reads 0.969.
G31C G33U: the self-cleavage came to 0.879.
In the case of G31C G33A it was 1.08; in that of U32C A42U, 0.366.
As for U32C A42C, the self-cleavage came to 0.316.
In the case of U32C A42G, the self-cleavage worked out at 0.364.
Take G31C G35C: the self-cleavage amounted to 0.779.
The result for G31C G35U reads 0.698; that for G31C G35A, 0.966; that for C30U, 1.02.
In the case of U32C G36C it was 0.553; in that of U32C G36A, 0.718; in that of U32C G36U, 0.73.
The result for U32C C38A reads 0.691; that for U32C C38G, 0.691; that for U32C C38U, 0.726.
U32C G33C: the self-cleavage stood at 1.15.
The result for U32C G33A reads 0.924; that for U32C G33U, 1.37; that for U32C A40C, 0.626.
For the variant U32C A40U, the self-cleavage is 0.306.
In the case of U32C A40G, the self-cleavage worked out at 0.406.
With G31U A40C, the self-cleavage was found to be 0.797.
For the variant G31U A40U, the self-cleavage stood at 0.399.
Take G31U A40G: the self-cleavage was found to be 0.382.
As to G31A G39C, the self-cleavage came out at 0.377.
In the case of G31A G39U it was 0.315; in that of G31A G39A, 0.356.
The result for U32C C43U reads 0.661; that for U32C C43A, 0.315; that for U32C C43G, 0.388.
On to C30U C43U, for which the self-cleavage was 0.546.
In the case of C30U C43G it was 0.343; in that of C30U C43A, 0.34.
In the case of C30U G33A it was 1.02; in that of C30U G33C, 0.714.
In the case of C30U G33U it was 1.18; in that of U32A G36C, 0.37.
As for U32A G36A, the self-cleavage turned out to be 0.721.
In the case of U32A G36U it was 0.668; in that of C30U G45C, 1.05; in that of C30U G45A, 0.606.
Consider C30U G45U, for which the self-cleavage stood at 0.981.
For G31A A40U, the self-cleavage amounted to 0.297.
In the case of G31A A40G it was 0.417; in that of G31A A40C, 0.642.
Take G33A G35C: the self-cleavage was determined as 0.787.
In the case of G33A G35U it was 0.866; in that of G33A G35A, 0.825.
In the case of U32C G35C it was 0.647.
Take U32C G35A: the self-cleavage was found to be 0.83.
In the case of U32C G35U it was 0.795; in that of G31A U32G, 0.529.
The result for G31A U32A reads 1.06; that for G31A U32C, 1; that for U32G C43U, 0.43.
In the case of U32G C43A it was 0.256.
As to U32G C43G, the self-cleavage is 0.303.
For the variant U32A G45U, the self-cleavage was 0.707.
U32A G45C: the self-cleavage was 0.593.
Turning to U32A G45A, the self-cleavage is 0.852.
With G31C A34C, the self-cleavage was 1.
G31C A34U: the self-cleavage came to 0.68.
Consider G31C A34G, for which the self-cleavage was found to be 0.994.
On to C30U G35A, for which the self-cleavage worked out at 1.02.
The result for C30U G35U reads 1.18; that for C30U G35C, 0.758; that for C30U G31C, 1.11.
The result for C30U G31A reads 1.02; that for C30U G31U, 1.01.
With C30U U32A, the self-cleavage is 0.892.
In the case of C30U U32G it was 1.17; in that of C30U U32C, 1.05; in that of G31U G33A, 0.708.
The result for G31U G33C reads 1.08; that for G31U G33U, 1.23; that for U32A A34U, 1.04.
As for U32A A34C, the self-cleavage came out at 0.796.
For U32A A34G, the self-cleavage was 0.818.
The result for G31C A37U reads 0.587; that for G31C A37C, 1.05.
The result for G31C A37G reads 0.968.
Take U32G C38U: the self-cleavage came to 0.559.
In the case of U32G C38A it was 0.674.
Consider U32G C38G, for which the self-cleavage amounted to 0.497.
In the case of G33A C38U it was 0.995.
For the variant G33A C38G, the self-cleavage stood at 0.854.
In the case of G33A C38A it was 0.608; in that of U32C A41G, 0.311.
Regarding U32C A41C, the self-cleavage came to 0.294.
In the case of U32C A41U it was 0.474.
The result for C30U A40C reads 0.514; that for C30U A40G, 0.333; that for C30U A40U, 0.345.
